Binding signal (% H-NS-bound DNA lost) and binding signal (% H-NS K120ace-bound DNA lost) data for one substance are collected here from PMC10899749.

Data set [1] deals with H-NS (Edwardsiella piscicida EIB202). In words: competition EMSA. As to conditions: EMSA: 20 ng Cy5 probe, 20 mM Tris pH 8.0, 150 mM NaCl, 0.1 mM DTT, 0.1 mM EDTA, 200 ng poly(dI:dC), 25 C, 30 min; 10% PAGE in Tris-glycine at 4 C. (In general: Mobility shift assays separate free from complexed probe on a gel.)
For data set [2], the system named is H-NS K120ace (Edwardsiella piscicida EIB202). In words: competition EMSA. As to conditions: EMSA: 20 ng Cy5 probe, 20 mM Tris pH 8.0, 150 mM NaCl, 0.1 mM DTT, 0.1 mM EDTA, 200 ng poly(dI:dC), 25 C, 30 min; 10% PAGE in Tris-glycine at 4 C.

In data set [1], PesrB (esrB promoter) gave a binding signal (% H-NS-bound DNA lost) of 43. This substance registered a binding signal (% H-NS K120ace-bound DNA lost) in data set [2] of 87.
